Reference: patent US5763245A, “Method of controlling insects” (priority 1996, dated 1998)

Columns and labels:
[1] = system: boll weevil larvae; assay: Boll weevil larvae bioassay (diet incorporation); type: in vivo
Procedure: Assays for activity against boll weevil larvae are carried out by incorporating the test sample into a agar liquid diet similar to that for southern corn rootworm [Marrone et al., 1985]. The test sample is substituted for the 20% water component. Neonate larvae are allowed to feed on the diet and mortality and growth stunting are evaluated.
Protein concentrations were determined spectrophotometrically with BCA protein reagent [Smith et al., 1985].

[2] = system: European cornborer; assay: Lepidopteran larvae bioassay on treated artificial diet, six days; type: in vivo; details: stage lv
Procedure: (§1) Lepidopteran larvae were tested on artificial diet treated with the indicated amount of the A19249 3-hydroxysteroid oxidase (cholesterol oxidase) for six days.

[3] = system: beet armyworm; assay: as above; type: in vivo; details: stage lv, dose 100 μg/mL
Procedure: as §1

[4] = system: black cutworm; assay: as above; type: in vivo; details: stage lv, dose 100 μg/mL
Procedure: as §1

[5] = system: corn earworm; assay: as above; type: in vivo; details: stage lv
Procedure: as §1

[6] = system: fall army worm; assay: as above; type: in vivo; details: stage lv, dose 30 μg/mL
Procedure: as §1

[7] = system: pink bollworm; assay: as above; type: in vivo; details: stage lv
Procedure: as §1

[8] = system: tobacco budworm; assay: as above; type: in vivo
Procedure: as §1

[9] = system: tobacco hornworm; assay: as above; type: in vivo; details: stage lv
Procedure: as §1

[10] = system: tobacco budworm larvae; assay: Extended test with tobacco budworm larvae; type: in vivo; details: 100 ppm in artificial diet
Procedure: An extended test was performed with tobacco budworm larvae to test the effect of the stunting noted in the six-day test. Tobacco budworm eggs were added to artificial diet (as described above) containing either buffer or 100 ppm A19249 3-hydroxysteroid oxidase (cholesterol oxidase). After seven days, some mortality as compared to the controls was noted. Surviving larvae were moved to fresh diet (control or treated, as appropriate). Percent mortality (corrected for control mortality) is reported for the 7 day and 10 day periods in Table 2A. The corrected number of larvae was […]

[11] = 3-Hydroxysteroid oxidase assay (spectrophotometric); type: biochemical
Procedure: The identity of the enzyme was confirmed by testing its ability to oxidize a 3-hydroxysteroid, specifically cholesterol. The enzyme is added to a reagent mixture comprising horseradish peroxidase (20 U/mL), phenol (14 mM), 4-amino antipyrine (0.82 mM), Triton® X-100 (0.05%) and phosphate buffer (100 mM, pH 7). The sterol in isopropanol is then added and the absorbance at 500 nm monitored. One unit of activity is defined as the amount of enzyme required to oxidize 1 &mole of sterol per minute at 20% C.
The activity levels of the enzymes are reported in Table 12 for 3-hydroxysteroids representative of various classes of 3-hydroxysteroids.

B1: A19249: 3-hydroxysteroid oxidase produced by streptomycete A19249 collected in Madagascar; 52.5 kDa, SEQ ID NO: 8 (protein)
chain: VNAHQPLSRRRMLGLAALGAAALTGQTTITAAPRAAAATAPGGSGGTFVPAVVIGTGYGAAVSALRLGEAGVSTLMLEMGQLWNQPGPDGNVFCGMLKPDKRSSWFKTRTEAPLGSFLWLDLANRDIDPYAGVLDRVNFDQMSVYVGRGVGGGSLVNGGMAVTPRRSYFQEVLPQVDADEMYGTYFPRANSGLRVNNIDKDWFEQTEWYTFARVARLQAENAGLKTTFVPNVYDWDYMRGEADGTNPKSALAAEVIYGNNHGKVSLDKSYLAAALGTGKVTVETLHQVKTIRQQNDGTYLLTVEQKDPDGKLLGTKEISCRHLFLGAGSLGSIELLLRARETGTLPGLSSEIGGGWGPNGNIMTARANHVWNPTGSKQSSIPALGIDDWDNPDNPVFAEIAPMPAGLETWVSLYLAITKNPERGTFVYDAAKDRADLRWTRDQNAPAVAAAKSLFDRVNKANTTIYRYDLFGKQIKAFADDFCYHPLGGCVLGKATDNYGRVSGYKNLYVTDGSLIPGSIGVNPFVTITALAERNVERVIKEDIAGS
- BollWeevil % Mortality ([1]; 5 μg/mL, 175 mUnits per mL): 10%
- Survivor Stunting ([1]; 5 μg/mL, 175 mUnits per mL): Slight
- BollWeevil % Mortality ([1]; 10 μg/mL, 350 mUnits per mL): 10%
- Survivor Stunting ([1]; 10 μg/mL, 350 mUnits per mL): Moderate
- BollWeevil % Mortality ([1]; 15 μg/mL, 525 mUnits per mL): 5%
- Survivor Stunting ([1]; 15 μg/mL, 525 mUnits per mL): Moderate
- BollWeevil % Mortality ([1]; 20 μg/mL, 700 mUnits per mL): 15%
- Survivor Stunting ([1]; 20 μg/mL, 700 mUnits per mL): Severe
- BollWeevil % Mortality ([1]; 40 μg/mL, 1400 mUnits per mL): 70%
- Survivor Stunting ([1]; 40 μg/mL, 1400 mUnits per mL): Severe
- BollWeevil % Mortality ([1]; 60 μg/mL, 2100 mUnits per mL): 60%
- Survivor Stunting ([1]; 60 μg/mL, 2100 mUnits per mL): Severe
- Stunting ([2]; dose 50 μg/mL): 0
- Stunting ([2]; dose 100 μg/mL): 46%
- Stunting [3]: 76%
- Stunting [4]: 68%
- Stunting ([5]; dose 50 μg/mL): 0
- Stunting ([5]; dose 100 μg/mL): 35%
- Stunting [6]: 0
- Stunting ([7]; dose 50 μg/mL): 0
- Stunting ([7]; dose 100 μg/mL): 30%
- Stunting ([8]; stage egg/lv, dose 30 μg/mL): 0
- Stunting ([8]; stage lv, dose 100 μg/mL): 86%
- Stunting ([9]; dose 30 μg/mL): 0
- Stunting ([9]; dose 100 μg/mL): 30%
- Percent Mortality (corrected for control mortality) ([10]; interval 7 days): 20%
- Percent Mortality (corrected for control mortality) ([10]; interval 10 days): 61%
- Percent Mortality (corrected for control mortality) ([10]; interval 14 days): 80%
- Relative Rate ([11]; sterol: 20-OH ecdysone): < 1
- Relative Rate ([11]; sterol: campesterol*): 65
- Relative Rate ([11]; sterol: cholesterol): 100
- Relative Rate ([11]; sterol: dehydrocholesterol): 13
- Relative Rate ([11]; sterol: dihydrocholesterol): 56
- Relative Rate ([11]; sterol: ecdysone): < 1
- Relative Rate ([11]; sterol: fucosterol): 22
- Relative Rate ([11]; sterol: lanosterol): < 1
- Relative Rate ([11]; sterol: lathosterol): 28
- Relative Rate ([11]; sterol: sitosterol): 88
- Relative Rate ([11]; sterol: stigmasterol): 22
